Experimental data published in publication PMC7948501, “Structure of transmembrane prolyl 4-hydroxylase reveals unique organization of EF and dioxygenase domains” (The Journal of Biological Chemistry, 2020).

Molecular target: the molecule itself
Test: SEC-SAXS; 7.4 mg/ml on Superdex 200 Increase 5/150, RT; 10 mM Tris HCl pH 7.8, 0.1 M NaCl, 0.1 M glycine, 1% glycerol, with and without 2 mM CaCl2; Bayesian molecular weight estimate

B1: soluble human transmembrane prolyl 4-hydroxylase (P4H-TM), residues 88 to 502 with an N-terminal His-tag (enzyme, UniProt Q9NXG6-1 88-502, looked up)
chain: DESSDPGPQHRAQGPGPEPTLGPLTRLEGIKVGHERKVQLVTDRDHFIRTLSLKPLLFEIPGFLTDEECRLIIHLAQMKGLQRSQILPTEEYEEAMSTMQVSQLDLFRLLDQNRDGHLQLREVLAQTRLGNGWWMTPESIQEMYAAIKADPDGDGVLSLQEFSNMDLRDFHKYMRSHKAESSELVRNSHHTWLYQGEGAHHIMRAIRQRVLRLTRLSPEIVELSEPLQVVRYGEGGHYHAHVDSGPVYPETICSHTKLVANESVPFETSCRYMTVLFYLNNVTGGGETVFPVADNRTYDEMSLIQDDVDLRDTRRHCDKGNLRVKPQQGTAVFWYNYLPDGQGWVGDVDDYSLHGGCLVTRGTKWIANNWINVDPSRARQALFQQEMARLAREGGTDSQPEWALDRAYRDARVEL
modifications: N-linked glycans at Asn368 and Asn382
notes: human transmembrane prolyl 4-hydroxylase (P4H-TM), isoform 1 (502 residues), residues 88-502; lacks the short cytoplasmic region and the transmembrane helix; then six histidines and residues 88-502; Calculated mass 48.3 kDa; also called soluble part of human P4H-TM; isoform 1; not shown: His6, N-terminal, kept
For B1, the “stoichiometry N” value was 2.
